Assay results published in the supplement of paper PMC12636428.

The sequences below were run on Saccharomyces cerevisiae (assay: transcriptional activation domain activity (GFP:mCherry ratio, weighted mean of sorted bins, harmonized to initial dataset scale) (arbitrary fluorescence ratio units); higher = stronger transcriptional activation). Conditions: beta-estradiol 1 µM; induction time 4 h.
Procedure, shortened: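 Barcoded tiles were sequenced after cells were sorted into 8 bins by GFP:mCherry ratio. Before sorting, cultures had been diluted 1:5 into SC with 1 uM beta-estradiol and held for 4 hours at 30 °C. The tiles were fused to an estradiol-inducible synthetic transcription factor and integrated at URA3 in yeast diploids carrying a GFP reporter. Activation activity is the read-weighted mean of bin median fluorescence, averaged over barcodes and linearly mapped onto the initial dataset scale, and tiles under 50 reads were left out.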

Sequence	transcriptional activation domain activity
AVGRGEFAQPVLVPGGGVAIVAIGRARWIRDEEKNGERRYRVGVSWSADHRVV	40100
TVGPVDNNYRDLEAYLETRYLRYCDPSKSLHLMATLMVRCAINILRFMARHPR	54100
YVLVLTYLNYFVLILFGHMRDILGKVFKAQAYVHLKTVNGYAPLVSDFDSFYN	63900
AAEPAPEPVVEKAPAPKKRAGRQPKAETVVEDAPAPKKRGRGARKSEPAAVAE	21000
GRHPEQHGVRYSLSKDSGATIVDIYLAHLLECLIPVVGRLKSVVSNLGTMRQT	78200
PKVLYILARYLGIIYISLFLGLRWSHFPIFVMKVNNLAYFVNALLYYTWIIIT	33800
KGRAEKKKKSSRRRDESESEGEEGEGGGGGGGRAPPKKRARLASKKEAQSGKY	31500
LLIYGIVGFINLIKGEYLIVITGCKKIGSLVHNAEIYRATSFQILPVTHGLSS	55300
TPFLFYRPLPPQYFCKFLLYYGGLVWWVLYSGFFFYFILGRGYRKIFLSYFCL	53100
DISKLAIETFYFFFLFLLSFLFSFLFFSFLFLIFFNFLYSSFFLSFFLSFFLF	33900
MLHVVGGYSRVRTWVIFLFVFRIGGRAYIDWIGFFFMGFLHWIRFIVVMVLFL	41800
PCSHTILNYGMTLSVSLVVVFRVSHMSFLSSSELSFLRGYHMMLASAFFLFVF	36600
LFEIDQRLGLLVPRNGINTSLVILKVIAKLLEKASIYNHFTLGIVWLRKSILV	49900
KIHLVNLGQISVFFIHRFLFGLIPLFEITTCAFFPLLISLWHIDYLLFYTVMF	39800
FITSLMLFQAVPCFLVHVIMLFPFFRNFPHQFRYRDPFTMVLLSFSFIFLFTF	62700
MFVCTSQSFIRSMGLYGFYLTGLMMTLLVVVVSLTFIQYPTIVILTLFHCLIS	44800
EVKAESKPESKVEPKTEAKPEPKAEPKSEPKVEPKKSESSKKNKKKKAKKAAA	33700
AMDGVAQLHALLGGCHTRLAGLVFSTFEAAVLLVYLCVDPMFPRDCPHQHVPP	57400
LFLMVWYLLMFSFDKKAIEHAWGLMGLLSKLAQSLSLRKFVHSEILAHHLIGS	80300
GTRAPAVHRDQRGPVDSQERAGEDVVRRERSVGQGRRAVRGARLVYAGAAALE	51500
GFSVDPIVSLLYRAFTMMDVTFLRTVCFDIFSRYSTAELALVNQAFTAKHKKK	40700

Sequence	transcriptional activation domain activity
KISAEYMVQYKGGLIGKHFKSLSQIMAFVVYDLVPKDILDAWTIIGRLVVLLW	75900
WLSHSKKKSCDVCKHPYSFTKVYAENMPPRLPVFLLLRKVVEQAFFTIVFSIR	55100
MDLGSAVPAPRRRIRDRTSQACNRCRATKIRCDNQAPACSPCRAKKLECIRDP	37600
ADEEGEGEAEEKPKRKRATKKKVEEEDDEEEEEEEKPKPKARAKAGSSKKAAT	21100
ALVRCCLSKVVYVALEFISICTMPESAKGVINLIDNLSPYARKDLVHLRGWVC	51800
GEGKRGGVGKKGKGKTKGKEGSIGKSNAKKGASETPKKEKEKARGAEASDKGS	45600
GDAKSTLEQLGDDAKLVDEDGNLCDAECIVDKVKEVVKHAGRTTRKSLLKLGL	51100
DLLFNVAAFVFVGAWTPFNQFSDPALSLSVWRLIVIAILVLLLRRLPAIIALY	27800
PQQAQAQKEPKKPKPPPPPAAPPGPPPPPRAPPPPPPPPPPPPGGGGAPPPPA	27600
KLEHEPGPEPKPEAEEKPKKARGRPKKAIPEGGYTPKKARGRPKKVLDPEAEV	14000
KAQDDKEADDSPKKKPAKRSRKKAAADDGDDDEEEAQPAKKKAKGGRKSKAAA	39400
LGNISAERHVLNTLSKIPAAQLHDALLVLPFSSLPALFTFLAIWVRKQWNVTL	56000
CDAGILLCLVCYLSSKLIYLFLVEKVFIIRGNRQRWTDKLFLFNMFGMLLPYC	51600
CKAHCGYILGHINIFQPLNWIFVKSSKVFPIDYILYLLLVLFFFCSSVVGIAT	28100
VPLMQFILFPPFDWLVLVASPHNPILTSEFYNHLWSLIKLITLCLPLPLFGTL	61500
MVMYHWGMRCVFLYTNYIIFGFGFVFSFLFSFFFFFFPFTCIFFFLFYLIFIF	58900
CLILVFADSWLFLTFTGVLLHGVGIELNKFTCSLGIFSCILLYTSSKVLIYFF	42800
SDVEDEESSEDEAPARGKKRGRAGQAAKRRRESSLLVTVFADVLVTDVSVFVG	59400
NLMIIVLVVSNLRLMIENYRKYGVLICIQCHDYRQQDILYGLILYLLVPCHLF	39400
HELFALYNLLYFRKLLLPRVEVIWSPRLTLCAGICELSKDPKTGKFTRIRLKL	47000
SLHLCFSMCLTMIGYIILIKIDTLEHKAVAYFACFLLTSGAFAPSCLFHSWHN	33300

Sequence	transcriptional activation domain activity
LGDQPHIPIPVAFRNIWSFLRVCTLEGFDAKEILPILFALSPGAQLRFIRCRS	70800
SHLEQMLWRICSLVIICAPMYLALSGKVFLIFSNSIGQLYILLCIRGPFLLYI	69600
RDARARRTRERRRGRAERAPEEGRREERRKRGRGARGGRARGGAAGRGGRGEG	32200
TFSNGEGERVSAWDARETEDGGREIFIEGEEVRVVVVQIRDGRVADWKGAVRD	30200
FICLLLSTTLRRLRWCLIRYIRNNYMEVCVCLVTIGVVAFSRLSWTLWVGAYV	50000
YKNLSKYPIVKSAVALISLVQSLCRTMHSMPFHTEEYIRMIEVVLLKYYEKCY	34300
YLMVLYYTSRPVLFLVCAGNELCFIFIYCLGWFSHWLLWLGLLISIPVCLFKQ	71800
MTHALNIVTYLYRQHLLEDEHFLDWILRNLGPCPLERLLVWLLLVSLYWRDLI	49800
GKSKEERERDEEVIRKWSGKPTKVMLQVFDDCSLSFTRPAKLMYRSIAHFSLW	65100
YINCGIKMFDPSSIITRRYIRMWPRKQANRVLGMLDKMSQSGGFTKVFFRLLY	58000
MNTNWNILPPVLFKWGPSLMVLSFNKPYFCSALPWYLYLCIFMCCLTHLYYFI	70600
VLFAVAVYMNHVPTAILWMSCVSAKLFSFCSQTFFVIRVYFLPWRFDLVFIPL	37600
RPAPAKSKARSSRKAVVEEPEIPQAQEEEEDVKPVIRGRKKRVSIAEPEKPKR	35300
MESVTCFYFHLFRFFHSRLLVFVLMLCFESIVSLFRFLCIFVFSLFFYIFFFF	75500
MTVDTLSYTLFPFYSLLSHFLLLLAEIVLCLKYCLLLTLFSILLFLLVFLFLA	32800
GSSTTPARCTSARTMRSASYGASKYKGREGKVTQVYRKKWVIHVQRDKVGQVR	83200
EDEEEEAEKAESKPPKKARKSKAEPAVDEDEPAVKPKKKATAASKKRKAESEE	21100
ISICLPELRLFMYCKFLYWLEVMSLLNDLEHVKQMLKDVLGCGKMQLKVFKFT	62000
TSAFGNLGSSSSTPSVFGGAGAGTNNTGSGGGGGGGFSAFAGKPTAFGAGAAG	39400
YKCVGLSPDCKTAFFMNVTAFLVCPLANFESGKIPKTDLILLSKSSRECKYKA	29600
SSEGGEENKAEEAELEKADKPKEETTEEKKSEEEKPEEKKPEEKKPEETKAEN	18500

Sequence	transcriptional activation domain activity
ENVYRPFLMVYTEAIILIFSFYLIILYIVLFTFLEGYPYIFSRVYGISDSLTF	40900
MTILVILSILCLFQSYMGGMYSLDAHWVDIGLLRIYCNTLCIKMCQILMQFLL	22700
VSAARKRWIAMVWLFTWWIPTYLLVCCGMKRQDIRMAWREKVAICIVIFWISA	56200
ATWWHVFGTRVFKPVPTYVGEFQTWLQAFIHLSWDWRLSTHMWFRYNFHMWTI	68900
DSAPTKRGRGRPKGSKNKNKSVASPSSPTSGAGSSAPRKRGRPPKAKPAESGA	38300
DNTPVLQEYLAVFRHLLSFHDPELSSHLDTIGFMPDLYAIPWFLTLFTHVFPL	64500
LIIDVFPPPPPLLSLFFFLSLSLFFSSSFLLFSFASLLSVQLWRGLIVLFVFL	62900
ITNGLYTGLGIKVPITKLQKYTPLEVALHSWRLVYMYFWSSFCLLIVCLIIFL	65800
DVKISNDFFDNGDNLYGNDEEVLFYEDNYNPKMQWSLQDNSAAINNEDARAIF	107000
MPTNFTKEGRTCTVTYKIQVHMIRPAVFIDFITLWIRQTFGMIVMVVTAELPR	47800
EAPEPAADAPPPRRVRMSKPKVKTGCRECKTRRVKCDEARPACTRCTRGRREC	36800
PNLLMPCPWRSMDLCIFFRLAVGFFFLFLFPLSLSLPPSPFFFLFFSTPVIMV	62500
MPIGPIIMLYPMRKHHSILPCKIQRLLEYLWSFLLIQKDWYRYEQTNKYSIMA	40100
LNKVCCIFCFLFSFYLLSFYSPFYFCFAFILLLSFFFFFFFFLLLLYFLLLSI	48600
SGTSLFLFYFYFIFILILISIITFFFLFLIFFFIILFLLLLFFSYPSGIRPGW	26900
DEEGRRALPRRCVLVMGSEREGVPGPVLAECDGCVEVRQVGVTRSLNVQTAAA	28700
ALSAWIIIQGYRVQWKTILLHDNLFVFTAASKSWVFAHAVYRFVLLTLPCFGS	40700
NGHIYPLSLNLFCFFSPMHAILYCFSISWDDYLSLAVLHSGLTIQMVLLVWHF	50000
FFLKVYLLNPMHMTRFADLLYQGAILNRVFQPYESHLQYLLQWMCDYNLYGCA	46700
AALALKFRYRIDGSTEDRWISVSRMLNKIAHWYLPQKYTFLHPSGIVSYAVIR	66900
